Measurements: the supplement of paper PMC3353916
± gives the standard deviation of the averaged measurements.

System: Sindbis virus TE/5'2J-GFP
Test: percent infected (GFP+ in RFP+ ISG-expressing cells); higher = more infection (less antiviral activity)
Experimental: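 Confirmatory testing of 87 ISGs. Triplicate wells of BHK/HA-Zeo (control) or BHK/NZAP-Zeo (ZAP) cells were transduced with lentiviruses co-expressing a human ISG plus TagRFP, then infected 48 h later with SINV TE/5'2J-GFP (moi 5). The % GFP+ cells among RFP+ cells was measured by flow cytometry at 8 h post infection. Fluc lentivirus served as control. Three independent experiments.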

[1] = experiment: confirmatory screen 1, BHK/HA-Zeo (control)
[2] = experiment: confirmatory screen 1, BHK/NZAP-Zeo (ZAP)
[3] = experiment: confirmatory screen 2, BHK/HA-Zeo (control)
[4] = experiment: confirmatory screen 2, BHK/NZAP-Zeo (ZAP)
[5] = experiment: confirmatory screen 3, BHK/HA-Zeo (control)
[6] = experiment: confirmatory screen 3, BHK/NZAP-Zeo (ZAP)
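Further: Interferon-defective BHK-21 derivatives, ZAP line overexpressing the rat ZAP N-terminal zinc finger domain fused to Zeocin resistance, GFP scored within live singlet TagRFP+ cells.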

Sequence	percent infected [1]	percent infected [2]	percent infected [3]	percent infected [4]	percent infected [5]	percent infected [6]
MRRLWGAARKPSGAGWEKEWAEAPQEAPGAWSGRLGPGRSGRKGRAVPGWASWPAHLALAARPARHLGGAGQGPRPLHSGTAPFHSRASGERQRRLEPQLQHESRCRSSTPADAWRAEAALPVRAMGAPWGSPTAAAGGRRGWRRGRGLPWTVCVLAAAGLTCTALITYACWGQLPPLPWASPTPSRPVGVLLWWEPFGGRDSAPRPPPDCRLRFNISGCRLLTDRASYGEAQAVLFHHRDLVKGPPDWPPPWGIQAHTAEEVDLRVLDYEEAAAAAEALATSSPRPPGQRWVWMNFESPSHSPGLRSLASNLFNWTLSYRADSDVFVPYGYLYPRSHPGDPPSGLAPPLSRKQGLVAWVVSHWDERQARVRYYHQLSQHVTVDVFGRGGPGQPVPEIGLLHTVARYKFYLAFENSQHLDYITEKLWRNALLAGAVPVVLGPDRANYERFVPRGAFIHVDDFPSASSLASYLLFLDRNPAVYRRYFHWRRSYAVHITSFWDEPWCRVCQAVQRAGDRPKSIRNLASWFER [FUT4]	94.45 ± 0.48%	62.4 ± 5.3%	92 ± 1.1%	94.23 ± 0.27%	89 ± 2.8%	92.68 ± 0.55%
MRSARSTALNRGEQRAVRYYSHMKLNMAEEEDYMSDSFINVQEDIRPGLPMLRQIREARRKEEKQQEANLKNRQKSLKEEEQERRDIGLKNALGCENKGFALLQKMGYKSGQALGKSGGGIVEPIPLNIKTGKSGIGHEASLKRKAEEKLESYRKKIHMKNQAEEKAAEQFRMRLKNKQDEMKLEGDLRRSQRACQQLDVQKNIQVPREAWYWLRLEEETEEDEEEKEQDEDEYKSEDLSVLEKLQILTSYLREEHLYCIWCGTAYEDKEDLSSNCPGPTSADHD [CCDC75]	93.8 ± 1.8%	56.8 ± 4.7%	96.02 ± 0.47%	95.39 ± 0.41%	94.54 ± 0.85%	92.82 ± 0.32%
MRSRLLLSVAHLPTIRETTEEMLLGGPGQEPPPSPSLDDYVRSISRLAQPTSVLDKATAQGQPRPPHRPAQACRKGRPAVSLRDITARFSGQQPTLPMADTVDPLDWLFGESQEKQPSQRDLPRRTGPSAGLWGPHRQMDSSKPMGAPRGRLCEARMPGHSLARPPQDGQQSSDLRSWTFGQSAQAMASRHRPRPSSVLRTLYSHLPVIHEL [C10orf10]	94.8 ± 1.7%	63.9 ± 6.1%	95.247 ± 0.086%	94.42 ± 0.28%	94.16 ± 0.87%	92.8 ± 0.27%
MRTSYLLLFTLCLLLSEMASGGNFLTGLGHRSDHYNCVSSGGQCLYSACPIFTKIQGTCYRGKAKCCK [DEFB1]	97.13 ± 0.85%	84.4 ± 1.1%	95.11 ± 0.27%	92.98 ± 0.91%	91.66 ± 0.67%	92.239 ± 0.055%
MSEIRKDTLKAILLELECHFTWNLLKEDIDLFEVEDTIGQQLEFLTTKSRLALYNLLAYVKHLKGQNKDALECLEQAEEIIQQEHSDKEEVRSLVTWGNYAWVYYHMDQLEEAQKYTGKIGNVCKKLSSPSNYKLECPETDCEKGWALLKFGGKYYQKAKAAFEKALEVEPDNPEFNIGYAITVYRLDDSDREGSVKSFSLGPLRKAVTLNPDNSYIKVFLALKLQDVHAEAEGEKYIEEILDQISSQPYVLRYAAKFYRRKNSWNKALELLKKALEVTPTSSFLHHQMGLCYRAQMIQIKKATHNRPKGKDKLKVDELISSAIFHFKAAMERDSMFAFAYTDLANMYAEGGQYSNAEDIFRKALRLENITDDHKHQIHYHYGRFQEFHRKSENTAIHHYLEALKVKDRSPLRTKLTSALKKLSTKRLCHNALDVQSLSALGFVYKLEGEKRQAAEYYEKAQKIDPENAEFLTALCELRLSI [IFIT5]	81.6 ± 2.9%	50.4 ± 1.2%	95.17 ± 0.24%	95.34 ± 0.45%	88.13 ± 0.37%	90.56 ± 0.79%
MSIMDHSPTTGVVTVIVILIAIAALGALILGCWCYLRLQRISQSEDEESIVGDGETKEPFLLVQYSAKGPCVERKAKLMTPNGPEVHG [SNN]	95.8 ± 1.9%	86.47 ± 0.82%	96.15 ± 0.19%	95.59 ± 0.2%	93.27 ± 0.64%	92.87 ± 0.32%
MSLRGSLSRLLQTRVHSILKKSVHSVAVIGAPFSQGQKRKGVEHGPAAIREAGLMKRLSSLGCHLKDFGDLSFTPVPKDDLYNNLIVNPRSVGLANQELAEVVSRAVSDGYSCVTLGGDHSLAIGTISGHARHCPDLCVVWVDAHADINTPLTTSSGNLHGQPVSFLLRELQDKVPQLPGFSWIKPCISSASIVYIGLRDVDPPEHFILKNYDIQYFSMRDIDRLGIQKVMERTFDLLIGKRQRPIHLSFDIDAFDPTLAPATGTPVVGGLTYREGMYIAEEIHNTGLLSALDLVEVNPQLATSEEEAKTTANLAVDVIASSFGQTREGGHIVYDQLPTPSSPDESENQARVRI [ARG2]	93.279 ± 0.073%	64 ± 4.9%	95.82 ± 0.36%	95.52 ± 0.29%	92.68 ± 0.49%	93.532 ± 0.087%
MSNGYSTDENFRYLISCFRARVKMYIQVEPVLDYLTFLPAEVKEQIQRTVATSGNMQAVELLLSTLEKGVWHLGWTREFVEALRRTGSPLAARYMNPELTDLPSPSFENAHDEYLQLLNLLQPTLVDKLLVRDVLDKCMEEELLTIEDRNRIAAAENNGNESGVRELLKRIVQKENWFSAFLNVLRQTGNNELVQELTGSDCSESNAEIENLSQVDGPQVEEQLLSTTVQPNLEKEVWGMENNSSESSFADSSVVSESDTSLAEGSVSCLDESLGHNSNMGSDSGTMGSDSDEENVAARASPEPELQLRPYQMEVAQPALEGKNIIICLPTGSGKTRVAVYIAKDHLDKKKKASEPGKVIVLVNKVLLVEQLFRKEFQPFLKKWYRVIGLSGDTQLKISFPEVVKSCDIIISTAQILENSLLNLENGEDAGVQLSDFSLIIIDECHHTNKEAVYNNIMRHYLMQKLKNNRLKKENKPVIPLPQILGLTASPGVGGATKQAKAEEHILKLCANLDAFTIKTVKENLDQLKNQIQEPCKKFAIADATREDPFKEKLLEIMTRIQTYCQMSPMSDFGTQPYEQWAIQMEKKAAKEGNRKERVCAEHLRKYNEALQINDTIRMIDAYTHLETFYNEEKDKKFAVIEDDSDEGGDDEYCDGDEDEDDLKKPLKLDETDRFLMTLFFENNKMLKRLAENPEYENEKLTKLRNTIMEQYTRTEESARGIIFTKTRQSAYALSQWITENEKFAEVGVKAHHLIGAGHSSEFKPMTQNEQKEVISKFRTGKINLLIATTVAEEGLDIKECNIVIRYGLVTNEIAMVQARGRARADESTYVLVAHSGSGVIEHETVNDFREKMMYKAIHCVQNMKPEEYAHKILELQMQSIMEKKMKTKRNIAKHYKNNPSLITFLCKNCSVLACSGEDIHVIEKMHHVNMTPEFKELYIVRENKALQKKCADYQINGEIICKCGQAWGTMMVHKGLDLPCLKIRNFVVVFKNNSTKKQYKKWVELPITFPNLDYSECCLFSDED [IFIH1]	70.9 ± 2.3%	14.9 ± 0.81%	95.18 ± 0.27%	92.703 ± 0.051%	85 ± 1.1%	81 ± 2.6%
MSSAIERKSLDPSEEPVDEVLQIPPSLLTCGGCQQNIGDRYFLKAIDQYWHEDCLSCDLCGCRLGEVGRRLYYKLGRKLCRRDYLRLFGQDGLCASCDKRIRAYEMTMRVKDKVYHLECFKCAACQKHFCVGDRYLLINSDIVCEQDIYEWTKINGMI [LMO2]	95.7 ± 1.2%	86.1 ± 1.6%	95.94 ± 0.44%	94.18 ± 0.17%	92.69 ± 0.33%	92.61 ± 0.82%
MSSENCFVAENSSLHPESGQENDATSPHFSTRHEGSFQVPVLCAVMNVVFITILIIALIALSVGQYNCPGQYTFSMPSDSHVSSCSEDWVGYQRKCYFISTVKRSWTSAQNACSEHGATLAVIDSEKDMNFLKRYAGREEHWVGLKKEPGHPWKWSNGKEFNNWFNVTGSDKCVFLKNTEVSSMECEKNLYWICNKPYK [CD69]	95.94 ± 0.47%	68.2 ± 4.8%	94.01 ± 0.54%	94.27 ± 0.39%	91.7 ± 1.1%	93.02 ± 0.27%
MSSILPFTPPIVKRLLGWKKGEQNGQEEKWCEKAVKSLVKKLKKTGQLDELEKAITTQNVNTKCITIPRSLDGRLQVSHRKGLPHVIYCRLWRWPDLHSHHELRAMELCEFAFNMKKDEVCVNPYHYQRVETPVLPPVLVPRHTEIPAEFPPLDDYSHSIPENTNFPAGIEPQSNIPETPPPGYLSEDGETSDHQMNHSMDAGSPNLSPNPMSPAHNNLDLQPVTYCEPAFWCSISYYELNQRVGETFHASQPSMTVDGFTDPSNSERFCLGLLSNVNRNAAVELTRRHIGRGVRLYYIGGEVFAECLSDSAIFVQSPNCNQRYGWHPATVCKIPPGCNLKIFNNQEFAALLAQSVNQGFEAVYQLTRMCTIRMSFVKGWGAEYRRQTVTSTPCWIELHLNGPLQWLDKVLTQMGSPSIRCSSVS [SMAD3]	77.4 ± 2.3%	40.7 ± 1.2%	93.92 ± 0.8%	94.56 ± 0.45%	80.2 ± 1.3%	88.2 ± 1.7%
MSSWSRQRPKSPGGIQPHVSRTLFLLLLLAASAWGVTLSPKDCQVFRSDHGSSISCQPPAEIPGYLPADTVHLAVEFFNLTHLPANLLQGASKLQELHLSSNGLESLSPEFLRPVPQLRVLDLTRNALTGLPPGLFQASATLDTLVLKENQLEVLEVSWLHGLKALGHLDLSGNRLRKLPPGLLANFTLLRTLDLGENQLETLPPDLLRGPLQLERLHLEGNKLQVLGKDLLLPQPDLRYLFLNGNKLARVAAGAFQGLRQLDMLDLSNNSLASVPEGLWASLGQPNWDMRDGFDISGNPWICDQNLSDLYRWLQAQKDKMFSQNDTRCAGPEAVKGQTLLAVAKSQ [LRG1]	95.1 ± 1%	68.2 ± 4.8%	95.09 ± 0.35%	94.92 ± 0.53%	93.09 ± 0.65%	94.47 ± 0.18%
MTLNNVTMRQGTVGMQPQQQRWSIPADGRHLMVQKEPHQYSHRNRHSATPEDHCRRSWSSDSTDSVISSESGNTYYRVVLIGEQGVGKSTLANIFAGVHDSMDSDCEVLGEDTYERTLMVDGESATIILLDMWENKGENEWLHDHCMQVGDAYLIVYSITDRASFEKASELRIQLRRARQTEDIPIILVGNKSDLVRCREVSVSEGRACAVVFDCKFIETSAAVQHNVKELFEGIVRQVRLRRDSKEKNERRLAYQKRKESMPRKARRFWGKIVAKNNKNMAFKLKSKSCHDLSVL [GEM]	91.5 ± 3.5%	65 ± 4%	94.19 ± 0.65%	94.64 ± 0.36%	94.39 ± 0.59%	93.55 ± 0.12%
MTLRCLEPSGNGGEGTRSQWGTAGSAEEPSPQAARLAKALRELGQTGWYWGSMTVNEAKEKLKEAPEGTFLIRDSSHSDYLLTISVKTSAGPTNLRIEYQDGKFRLDSIICVKSKLKQFDSVVHLIDYYVQMCKDKRTGPEAPRNGTVHLYLTKPLYTSAPSLQHLCRLTINKCTGAIWGLPLPTRLKDYLEEYKFQV [SOCS2]	95.84 ± 0.81%	76.8 ± 4.2%	95.47 ± 0.42%	94.44 ± 0.35%	92.29 ± 0.39%	92.23 ± 0.73%
